Laboratory results as given in patent publication US12091454B2, “Humanized anti-human neurotensin receptor 1 antibodies and their uses” (DEVELOPMENT CENTER FOR BIOTECHNOLOGY, priority 2022, dated 2024).

How the values were obtained:
[1] = tested on: FaDu human head and neck cancer xenograft; test: Xenograft model of anti-NTSR1 ADCs (head and neck cancer); assay type: in vivo, male NOD SCID mice; details: for FaDu tumor growth: 5 mg/kg, Day 10 to Day 17
Description: The aim of this study was to evaluate the in vivo anti-tumor efficacy of αNTSR1 (AKT2) 4seco-DUBA, αNTSR1 (AKT2 Hu/Hu) 4seco-DUBA, and αNTSR1 (AKT2 Hu/Hd) 4seco-DUBA in FaDu human head and neck cancer xenograft model in male NOD SCID mice.
Formulations respectively comprising test article αNTSR1 (AKT2) 4seco-DUBA, test article αNTSR1 (AKT2 Hu/Hu) 4seco-DUBA, test article αNTSR1 (AKT2 Hu/Hd) 4seco-DUBA, and Hu IgG were formulated by diluting the stock with a 25 mM sodium citrate buffer (pH 6.5). […]
The FaDu cells were maintained in vitro as a monolayer culture in RPMI-1640 medium supplemented with 10% fetal bovine serum at 37° C. in an atmosphere of 5% CO2 in air. The tumor cells were routinely sub-cultured twice weekly by trypsin-EDTA treatment. The cells growing in an exponential growth phase were harvested and counted for tumor inoculation.
Male NOD SCID mice at age of 6-7 weeks were quarantined for one week. Five mice were housed in each cage. All animals were hosted in the animal facility with a 12-h light/12-h dark cycle at 19-25° C. Animals had free access to rodent pellet foods and water ad libitum.
FaDu cells were subcutaneously (SC) implanted (4×10^6 cells in 1:1 PBS/matrigel mixture at 0.1 mL per mouse) into the right flank of male NOD SCID mice. When the average tumor volume had reached about 200 mm^3, the mice were randomly divided into 7 groups (N=6 per group). Each of Hu IgG, αNTSR1 (AKT2) 4seco-DUBA (5 mg/kg), αNTSR1 (AKT2 Hu/Hu) 4seco-DUBA (5 mg/kg), and αNTSR1 (AKT2 Hu/Hd) 4seco-DUBA (5 mg/kg) was intravenously administered twice weekly for 3 weeks.
The tumor volumes, body weights, mortality, and signs of overt toxicity were monitored and recorded three times weekly for 28 days. Tumor volumes (mm^3) were measured three times per week using calipers and calculated according to the formula: Tumor Volume=(w^2×l)/2, where w=width and l=length in diameter (mm) of the tumor. The percentages of tumor growth inhibition (TGI) were calculated using the following formula: % TGI=[1−(T/C)]×100%, where T and C represent the mean tumor volumes of the treatment group and the control group, respectively. A TGI (%) value≥58% was considered as indicating significant anti-tumor activity. Animals were weighed three times weekly until the completion of the study.

[2] = In vivo pharmacokinetic analysis (MSD ECL total antibody assay); details: BALB/c mice, 5 mg/kg via the tail vein; for MRT / Vss / t½: total antibody; for in vivo half live: 5 mg/kg
Source text: This Example used Meso Scale Discovery (MSD) Electrochemiluminescent (ECL) method to conduct the PK analysis of the anti-NTSR1 antibodies αNTSR1 (AKT2), αNTSR1 (AKT2 Hu/Hu) and αNTSR1 (AKT2 Hu/Hd) in BALB/c mice samples. The MSD assay can measure both conjugated and unconjugated antibodies. As illustrated in this example, for total antibody assay (including conjugated and unconjugated antibodies), the plate is coated with goat anti-human IgG, which can capture all humanized antibodies (conjugated and unconjugated).
The mice were administered at a dose level of 5 mg/kg via the tail vein. Blood samples were then obtained at different time points for determining the concentrations of αNTSR1 (AKT2), αNTSR1 (AKT2 Hu/Hu) and αNTSR1 (AKT2 Hu/Hd) in mice by MESO QuickPlex SQ 120 method. The PK parameters of αNTSR1 (AKT2), αNTSR1 (AKT2 Hu/Hu) and αNTSR1 (AKT2 Hu/Hd) were analyzed by noncompartmental analysis using PHOENIX™ for WinNonlin Program, version 6.3.

[3] = target: NTSR1 protein (Homo sapiens, UniProt P30989); test: SPR (BIACORE T200) multi-cycle kinetic assay; details: 25° C., one-to-one Langmuir binding model
NTSR1 protein, sequence (P30989 whole entry): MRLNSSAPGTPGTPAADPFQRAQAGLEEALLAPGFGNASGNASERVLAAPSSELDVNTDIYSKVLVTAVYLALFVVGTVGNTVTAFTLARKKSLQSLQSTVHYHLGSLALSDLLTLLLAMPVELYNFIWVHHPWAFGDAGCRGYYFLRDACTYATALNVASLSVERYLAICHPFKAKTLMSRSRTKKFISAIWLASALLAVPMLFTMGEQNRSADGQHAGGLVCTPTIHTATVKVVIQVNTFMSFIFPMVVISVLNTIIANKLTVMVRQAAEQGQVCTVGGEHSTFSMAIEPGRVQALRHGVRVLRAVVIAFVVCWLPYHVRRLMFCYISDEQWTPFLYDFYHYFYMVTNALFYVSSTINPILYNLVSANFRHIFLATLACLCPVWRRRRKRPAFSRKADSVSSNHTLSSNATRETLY
Description: To know the binding kinetics differences among individual anti-NTSR1 antibodies, surface plasmon resonance (SPR) measurement with BIACORE™ T200 (CYTIVA® Inc.) was used as previously described (Karlsson & Falt, (1997) J. Immunol Methods 200:121-133). Carboxymethylated dextran biosensor chips (CM5, CYTIVA® Inc.) were activated with N-ethyl-N′-(3-dimethylaminopropyl)-carbodiimide hydrochloride (EDC) and N-hydroxysuccinimide (NHS) according to the supplier's instructions. NTSR1 protein was diluted with 10 mM sodium acetate, pH 4.0, into 5 μg/ml before injection at a flow rate of 10 μL/minute to achieve approximately 1500 response units (RU) of coupled protein followed by the injection of 1 M ethanolamine to block unreacted groups. For kinetics measurements, two-fold serial dilutions of anti-NTSR1 mAb (0.3125 nM to 40 nM) were injected in HBS-EP+BIACORET™ running buffer provided by the manufacturer (CYTIVA® Inc.) at 25° C. at a flow rate of 30 μL/min, and binding responses on the NTSR1 protein were corrected by subtraction of responses on a blank flow cell. Association rates (kon or Ka) and dissociation rates (koff or Kd) were calculated using a simple one-to-one Langmuir binding model with separate fittings of kon and koff. (CYTIVA® BIACORET™ Insight Evaluation Software).

[4] = tested on: FaDu cells; test: In vitro cytotoxicity study (CELLTITER-GLO); assay type: cell-based, human; details: 72 hours treatment, cell viability, read-out: Relative IC50
Description: Human head and neck cancer cell line FaDu was respectively grown in RPMI-1640 medium (ATCC® modification) supplemented with 10% fetal bovine serum. The FaDu cell lines were maintained in an atmosphere of 5% CO2 in a humidified 37° C. incubator. The day before treatment, cells were collected and seeded into 96-well plates (4,000 cells per well). Each treatment was performed in eight triplicate data points. After the treatment of 72 hours, cell viability was assessed by CELLTITER-GLO® kit (PROMEGA®) according to the manufacturer's instruction. At the end of the incubation, luminescence was measured using a SpectraMax i3x Multi Mode Detection Platform (MOLECULAR DEVICES®). Compound cytotoxicity was evaluated in comparison to cells treated with 0.05% PBS (ADCs) or 0.05% DMSO (toxic payload). IC50 values were calculated by fitting viability data with a four-parameter logistic equation using GRAPHPAD® prism 5.0 software.

Molecule | TGI % (1-T/C) Day 0 ([1]; 5 mpk, IV, BIW × 3) | TGI % (1-T/C) Day 3 ([1]; 5 mpk, IV, BIW × 3, Day 3) | TGI % (1-T/C) Day 5 ([1]; 5 mpk, IV, BIW × 3) | TGI % (1-T/C) Day 7 ([1]; 5 mpk, IV, BIW × 3) | TGI % (1-T/C) Day 10 ([1]; 5 mpk, IV, BIW × 3) | TGI % (1-T/C) Day 12 ([1]; 5 mpk, IV, BIW × 3) | TGI % (1-T/C) Day 14 ([1]; 5 mpk, IV, BIW × 3) | TGI % (1-T/C) Day 17 ([1]; 5 mpk, IV, BIW × 3) | MRT [2] | Vss [2] | t½ [2] | in vivo half live ([2]; listed as αNTSR1 (AKT2 Hu/Hu)) | Ka (kon, association rate) [3] | Kd (koff, dissociation rate) [3] | in vivo half live ([2]; listed as αNTSR1 (AKT2 Hu/Hd)) | FaDu tumor growth [1] | IC50 [4]
AKT2 HuHu: humanized anti-NTSR1 antibody, AKT2 HuVH (SEQ ID NO: 16) and AKT2 HuVL (SEQ ID NO: 17) (antibody, V domains shown) VH: QVQLVQSGAEVKKPGASVKVSCKASGYAFTSSWIHWVRQAPGQGLEWMGQIRPNSGNTYYNEKFKVRVTMTRDTSTSTVYMELSSLRSEDTAVYYCARYHYGFDYWGQGTLVTVSS VL: DIVMTQTPLSLSVTPGQPASISCRSSQSIVHSNGNTYLEWYLQKPGQSPQLLIYKVSNRFSGVPDRFSGSGSGTDFTLKISRVEAEDVGVYYCFQGAHLPWTFGQGTKVEIK | 0.0% | 17.7% | 33.4% | 37.3% | 13.4% | 6.7% | 25.6% | 26.9% | 252 ± 116 h | 0.120 ± 0.026 L/kg | 182 ± 90.8 h | 182 ± 90.8 h | 787700 M⁻¹ s⁻¹ | 0.0008084 s⁻¹ |  |  | 
AKT2 HuHd: humanized anti-NTSR1 antibody, AKT2 HuVH (SEQ ID NO: 16) and AKT2 HdVL (SEQ ID NO: 15) (antibody, V domains shown) VH: QVQLVQSGAEVKKPGASVKVSCKASGYAFTSSWIHWVRQAPGQGLEWMGQIRPNSGNTYYNEKFKVRVTMTRDTSTSTVYMELSSLRSEDTAVYYCARYHYGFDYWGQGTLVTVSS VL: DIQMTQSPSSLSASVGDRVTITCRSSQSIVHSNGNTYLEWYQQKPGKAPKLLIYKVSNRFSGVPSRFSGSGSGTDFTLTISSLQPEDFATYYCFQGAHLPWTFGQGTKVEIK | 0.0% |  | 13.1% | 28.4% | 36.2% | 40.9% | 37.8% | 32.5% | 209 ± 62.5 h | 0.135 ± 0.020 L/kg | 156 ± 48.6 h |  | 461400 M⁻¹ s⁻¹ | 0.0006575 s⁻¹ | 156 ± 48.6 h |  | 
αNTSR1 (AKT2 Hu/Hu) 4seco-DUBA: antibody-drug conjugate of humanized antibody AKT2 HuHu with seco-DUBA payload (conjugate) heavy chain: QVQLVQSGAEVKKPGASVKVSCKASGYAFTSSWIHWVRQAPGQGLEWMGQIRPNSGNTYYNEKFKVRVTMTRDTSTSTVYMELSSLRSEDTAVYYCARYHYGFDYWGQGTLVTVSS light chain: DIVMTQTPLSLSVTPGQPASISCRSSQSIVHSNGNTYLEWYLQKPGQSPQLLIYKVSNRFSGVPDRFSGSGSGTDFTLKISRVEAEDVGVYYCFQGAHLPWTFGQGTKVEIK | 0.0% |  | 17.5% | 47.2% | 65.4% | 72.2% | 83.8% | 90.8% |  |  |  |  |  |  |  | significantly reduced FaDu tumor growth | 0.0125 µM
αNTSR1 (AKT2) 4seco-DUBA: antibody-drug conjugate of chimera antibody AKT2 with seco-DUBA payload (conjugate) heavy chain: QVQLQQPGSVLVRPGASVKLSCKASGYAFTSSWIHWAKQRPGQGLEWIGQIRPNSGNTYYNEKFKVKATLTVDTSSSTAYVDLSSLTSEDSAVYYCARYHYGFDYWGQGTLVTVSS light chain: DVLMTQTPLSLPVSLGDQASISCRSSQSIVHSNGNTYLEWYLQKPGQSPKLLIYKVSNRFSGVPDRFSGSGSGTDFTLKISRVEAEDLGVYYCFQGAHLPWTFGGGTKLEIK | 0.0% |  | 28.5% | 54.4% | 68.5% | 83.8% | 90.5% | 95.3% |  |  |  |  |  |  |  | significantly reduced FaDu tumor growth | 0.0369 µM
